For the experiment, the target named is T1, Erbin PDZ (UniProt Q96RT1 1321-1410, limits assumed).
T1 construct: domain: PDZ; Isolated PDZ domain without FN3; Expressed in E. coli from a pHFT2 derivative; also called wild-type PDZ domain; parent PDZ
Kind of experiment: SPR (BIAcore 2000); PDZ immobilised on Ni-NTA chip, SUMO-peptide fusion as analyte. As for the experimental part:
Affinity Measurements. SPR measurements were performed in 20 mM HEPES/NaOH buffer (pH 7.4), 150 mM NaCl, and 0.005% Tween 20 at 25° C. on a BIAcore 2000 instrument. The affinity clamp or the linker mutant was immobilized on a Ni-NTA chip to the level of approximate 300 RU, and different concentrations of SUMO-peptide fusion protein were injected. The kinetic data were analyzed using the one-to-one binding model in BIAEvaluation (BIAcore).

Consider two molecules from US20110045604A1 (UNIVERSITY OF CHICAGO, published 2011).

T1 sequence (Q96RT1 1321-1410 limits assumed): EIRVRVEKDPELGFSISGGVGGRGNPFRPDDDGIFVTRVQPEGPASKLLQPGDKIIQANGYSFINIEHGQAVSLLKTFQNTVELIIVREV

B1: SUMO-δ-catenin peptide fusion protein (peptide)
peptide: {yeast SUMO}-PASPDSWV-OH
modifications: not fully specified
notes: The methods say that SUMO-peptide fusion proteins were injected in SPR; also called C-terminus of δ-catenin; not shown: The yeast SUMO fusion partner N-terminal to the peptide, and any junction or tag residues
On to B1, for which binding was put at a Kd of 6.3 µM.

B2: SUMO-ARVCF peptide fusion protein (peptide)
chain: PQPVDSWV
notes: Analyte in SPR; also called wild-type ARVCF peptide; AVFCF peptide; not shown: yeast SUMO, fusion partner N-terminal to the peptide
The molecule B2 returned a Kd of 2.2 µM.
